How the values were obtained:
[1] = cycloheximide chase, immunoblot, NP cells
[2] = actinomycin D chase, RT-qPCR; details: glycan lost; control: shYTHDF2 + Flag-YTHDF2 WT
[3] = nuclear/cytoplasmic fractionation and immunofluorescence
[4] = in vitro ubiquitination with His-OGT and UDP-GlcNAc; details: glycan lost; control: purified Flag-YTHDF2 WT
[5] = HA-Ub, MG132, IP and immunoblot, NP cells
[6] = IHC and Western blot of disc tissue; details: glycan gained; control: IDD mice given saline
[7] = immunoblot of endogenous YTHDF2, NP cells; details: glycan gained; control: H2O2 alone
[8] = immunoblot, with or without MG132, CQ, BafA1; details: glycan lost; control: untreated
[9] = glycan lost, control: Flag-YTHDF2 WT
[10] = glycan gained, control: untreated Flag-YTHDF2 WT

B1: YTHDF2: S263A (protein)
parent chain: MSASSLLEQRPKGQGNKVQNGSVHQKDGLNDDDFEPYLSPQARPNNAYTAMSDSYLPSYYSPSIGFSYSLGEAAWSTGGDTAMPYLTSYGQLSNGEPHFLPDAMFGQPGALGSTPFLGQHGFNFFPSGIDFSAWGNNSSQGQSTQSSGYSSNYAYAPSSLGGAMIDGQSAFANETLNKAPGMNTIDQGMAALKLGSTEVASSVPKVVGSAVGSGSITSNIVASSSLPPATIAPPKPASWADIASKPAKQQPKLKTKNGIAGSSLPPPPIKHNMDIGTWDNKGPVAKAPSQALVQNIGQPTQGSPQPVGQQANNSPPVAQASVGQQTQPLPPPPPQPAQLSVQQQAAQPTRWVAPRNRGSGFGHNGVDGNGVGQSQAGSGSTPSEPHPVLEKLRSINNYNPKDFDWNLKHGRVFIIKSYSEDDIHRSIKYNIWCSTEHGNKRLDAAYRSMNGKGPVYLLFSVNGSGHFCGVAEMKSAVDYNTCAGVWSQDKWKGRFDVRWIFVKDVPNSQLRHIRLENNENKPVTNSRDTQEVPLEKAKQVLKIIASYKHTTSIFDDFSHYEKRQEEEESVKKERQGRGK
[1]; [9]
  degradation_or_half_life: decreases
[2]
  other: target mRNA stability: decreases
[3]; [9]
  localisation_or_trafficking: no change
[4]
  other: ubiquitination: increases
[5]; [9]
  other: ubiquitination: increases

B2: YTHDF2: TMG (protein)
parent chain: B1 parent chain
[1]; [10]
  degradation_or_half_life: increases
[3]; glycan gained, control: untreated
  localisation_or_trafficking: no change
[6]
  expression_or_secretion: increases
[7]
  expression_or_secretion: increases
[5]; [10]
  other: ubiquitination: changes

B3: YTHDF2: OSMI-1 (protein)
parent chain: B1 parent chain
[8]
  expression_or_secretion: decreases
[3]; glycan lost, control: untreated
  localisation_or_trafficking: no change
